Measured values from patent US20250043302A1, “MUTATED HYDROXYPHENYLPYRUVATE DIOXYGENASE POLYPEPTIDE, AND CODING GENE AND USE THEREOF” (BEIJING DABEINONG BIOTECHNOLOGY CO., LTD., priority 2021, published 2025).

How the values were obtained:
Type in all cases: in vivo
[1] = system: Arabidopsis thaliana T1 plants; test: Mesotrione tolerance of transgenic Arabidopsis thaliana T1 plants (spray, bleached leaf area grade, damage score); set-up: Scores: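 damage score 0-100 computed as Σ(N×S)/(T×M)×100 over grades 0-3 with higher meaning more damage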; conditions: Arabidopsis thaliana T1 plants; for Grade 0 (classification and statistics of the grade of pesticide damage; number of plants) / Grade 1 (classification and statistics of the grade of pesticide damage; number of plants) / Grade 2 (classification and statistics of the grade of pesticide damage; number of plants) / Grade 3 (classification and statistics of the grade of pesticide damage; number of plants): 16 plants
How it was run: (§1)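 T1 transformants selected by glufosinate; 18-day-old plants, with empty-vector and wild-type controls, sprayed with topramezone (25–200 g ai/ha), isoxaflutole (35–280 g ai/ha) or mesotrione (52.5–420 g ai/ha), water as 0×. Bleached leaf area fraction scored at 7 DAT as grades 0–3.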

[2] = system: Arabidopsis thaliana T1 plants; test: Topramezone tolerance of transgenic Arabidopsis thaliana T1 plants (spray, bleached leaf area grade, damage score); conditions: 7 DAT, Table 4; for Classification and statistics of the grade of pesticide damage: Grade 0 / Classification and statistics of the grade of pesticide damage: Grade 1 / Classification and statistics of the grade of pesticide damage: Grade 2 / Classification and statistics of the grade of pesticide damage: Grade 3: number of plants; for Scores: pesticide damage score 0-100
How it was run: as §1

[3] = system: Arabidopsis thaliana T1 plants; test: Isoxaflutole tolerance of transgenic Arabidopsis thaliana T1 plants (spray, bleached leaf area grade, damage score); set-up: Scores (pesticide damage): scale not given here; conditions: spray, Arabidopsis thaliana T1 plants; for Classification and statistics of the grade of pesticide damage: Grade 0 (number of plants) / Classification and statistics of the grade of pesticide damage: Grade 1 (number of plants) / Classification and statistics of the grade of pesticide damage: Grade 2 (number of plants) / Classification and statistics of the grade of pesticide damage: Grade 3 (number of plants): 16 plants
How it was run: as §1

[4] = isoxaflutole 35 g ai/ha (0.5x field concentration)
[5] = isoxaflutole 70 g ai/ha (1x field concentration)

B1: OsHPPD-02: nucleotide sequence encoding wild-type Oryza sativa HPPD; vector DBN11754 (nucleic acid)
DNA: ATGCCACCCACGCCAACACCAACGGCCACCACTGGTGCCGTCTCGGCCGCGGCAGCGGCCGGTGAGAATGCTGGTTTCAGGCTAGTCGGCCACCGCCGCTTCGTGAGGGCAAATCCAAGATCTGATCGGTTCCAAGCACTTGCTTTCCACCATGTTGAGCTGTGGTGCGCTGACGCCGCTTCAGCTGCCGGGAGGTTTGCTTTTGCTTTAGGGGCGCCGCTCGCCGCAAGGAGTGATCTTTCCACCGGAAATTCTGCTCATGCTTCTCTTCTACTTAGATCAGCAAGTGTTGCATTTCTGTTCACTGCACCTTATGGCGGAGACCATGGTGTCGGGGCCGATGCTGCAACAACAGCTAGCATACCATCATTTTCTCCCGGCGCCGCAAGAAGATTTGCAGCCGATCATGGCCTGGCAGTTCATGCTGTGGCATTGAGGGTCGCCGACGCGGCTGATGCGTTCCGCGCCAGCGTGGCTGCTGGAGCTAGGCCGGCGTTCCAGCCTGCTGACCTTGGGGGTGGATTTGGATTGGCGGAGGTTGAATTATATGGTGATGTTGTGCTCCGTTTTGTTTCCCATCCAGATGGTGCTGATGCTCCATTTCTACCTGGATTTGAAGGGGTGTCAAACCCCGGCGCGGTGGATTATGGACTGCGTCGATTTGATCACGTGGTAGGTAATGTTCCTGAGTTGGCTCCCGTGGCGGCCTACATTTCAGGCTTTACTGGCTTCCATGAATTTGCCGAGTTCACCGCGGAAGATGTGGGAACTGCTGAAAGTGGATTGAACTCTGTTGTCCTGGCGAACAATGCAGAGACTGTATTGCTCCCCTTGAATGAGCCTGTGCACGGCACCAAACGGCGATCTCAAATTCAGACATACCTCGACCACCACGGGGGCCCTGGTGTTCAGCATATTGCTCTAGCCAGCGACGACGTACTGGGAACACTGAGGGAGATGAGAGCCCGTTCCGCCATGGGTGGCTTTGAGTTTCTGGCCCCTCCGCCGCCAAACTACTACGACGGCGTCAGACGGCGGGCGGGTGACGTCTTGAGTGAGGAGCAGATCAATGAATGTCAAGAACTTGGGGTTCTTGTTGATAGAGATGATCAAGGAGTGCTCCTCCAAATATTCACAAAACCTGTTGGCGACCGCCCGACCTTCTTCCTTGAAATGATCCAAAGGATCGGCTGCATGGAGAAGGATGAATCGGGCCAGGAGTACCAGAAGGGTGGGTGTGGTGGCTTTGGGAAGGGCAACTTCAGCGAGCTGTTCAAGTCAATTGAAGAATATGAAAAATCATTGGAGGCAAAGCAAGCTCCGACGGTGCAGGGAAGCTGA
modifications: OsHPPD-02 Nucleotide Sequence
notes: vector DBN11754
- Resistance evaluation ([1]; mesotrione 52.5 g ai/ha): Non-resistant
- Scores ([1]; mesotrione 52.5 g ai/ha): 100
- Grade 0 (classification and statistics of the grade of pesticide damage; number of plants) ([1]; mesotrione 52.5 g ai/ha): 0
- Grade 1 (classification and statistics of the grade of pesticide damage; number of plants) ([1]; mesotrione 52.5 g ai/ha): 0
- Grade 2 (classification and statistics of the grade of pesticide damage; number of plants) ([1]; mesotrione 52.5 g ai/ha): 0
- Grade 3 (classification and statistics of the grade of pesticide damage; number of plants) ([1]; mesotrione 52.5 g ai/ha): 16
- Resistance evaluation ([1]; mesotrione 105 g ai/ha): Non-resistant
- Scores ([1]; mesotrione 105 g ai/ha): 100
- Grade 0 (classification and statistics of the grade of pesticide damage; number of plants) ([1]; mesotrione 105 g ai/ha): 0
- Grade 1 (classification and statistics of the grade of pesticide damage; number of plants) ([1]; mesotrione 105 g ai/ha): 0
- Grade 2 (classification and statistics of the grade of pesticide damage; number of plants) ([1]; mesotrione 105 g ai/ha): 0
- Grade 3 (classification and statistics of the grade of pesticide damage; number of plants) ([1]; mesotrione 105 g ai/ha): 16
- Classification and statistics of the grade of pesticide damage: Grade 0 ([2]; topramezone 25 g ai/ha (1×)): 0
- Classification and statistics of the grade of pesticide damage: Grade 1 ([2]; topramezone 25 g ai/ha (1×)): 0
- Classification and statistics of the grade of pesticide damage: Grade 2 ([2]; topramezone 25 g ai/ha (1×)): 0
- Classification and statistics of the grade of pesticide damage: Grade 3 ([2]; topramezone 25 g ai/ha (1×)): 16
- Classification and statistics of the grade of pesticide damage: Grade 0 ([2]; topramezone 100 g ai/ha (4×)): 0
- Classification and statistics of the grade of pesticide damage: Grade 1 ([2]; topramezone 100 g ai/ha (4×)): 0
- Classification and statistics of the grade of pesticide damage: Grade 2 ([2]; topramezone 100 g ai/ha (4×)): 0
- Classification and statistics of the grade of pesticide damage: Grade 3 ([2]; topramezone 100 g ai/ha (4×)): 16
- Scores ([2]; topramezone 25 g ai/ha (1×)): 100
- Scores ([2]; topramezone 100 g ai/ha (4×)): 100
- Resistance evaluation ([2]; topramezone 25 g ai/ha (1×)): non-resistant (non-resistant plants (scores 68-100))
- Resistance evaluation ([2]; topramezone 100 g ai/ha (4×)): non-resistant (non-resistant plants (scores 68-100))
- Resistance evaluation [3, 4]: Non-resistant
- Scores (pesticide damage) [3, 4]: 100
- Classification and statistics of the grade of pesticide damage: Grade 0 (number of plants) [3, 4]: 0
- Classification and statistics of the grade of pesticide damage: Grade 1 (number of plants) [3, 4]: 0
- Classification and statistics of the grade of pesticide damage: Grade 2 (number of plants) [3, 4]: 0
- Classification and statistics of the grade of pesticide damage: Grade 3 (number of plants) [3, 4]: 16
- Resistance evaluation [3, 5]: Non-resistant
- Scores (pesticide damage) [3, 5]: 100
- Classification and statistics of the grade of pesticide damage: Grade 0 (number of plants) [3, 5]: 0
- Classification and statistics of the grade of pesticide damage: Grade 1 (number of plants) [3, 5]: 0
- Classification and statistics of the grade of pesticide damage: Grade 2 (number of plants) [3, 5]: 0
- Classification and statistics of the grade of pesticide damage: Grade 3 (number of plants) [3, 5]: 16
